Values joined by “and” are separate entries in the source; they are usually repeats but may differ in a detail not shown here. Equal values may be shown once.
Molecular target: the molecule itself
Test: SEC; SE-HPLC on Superdex 200 10/300 GL, 0.1 M Na2CO3 pH 10.3, 0.4 ml/min, detection at 280 nm; purified rCU after xanthine affinity chromatography and Source 15Q fractions

B1: recombinant canine uricase (enzyme, UniProt Q5FZI9 1-304, looked up)
chain: MAHYHNDYKKNDEVEFVRTGYGKDMVKVLHIQRDGKYHSIKEVATSVQLTLSSKKDYVYGDNSDIIPTDTIKNTVHVLAKFKGIKSIETFAMNICEHFLSSFNHVIRAQVYVEEVPWKRFEKNGVKHVHAFIHNPTGTHFCEVEQMRSGPPVIHSGIKDLKVLKTTQSGFEGFIKDQFTTLPEVKDRCFATKVYCKWRYHQGRDVDFEATWDTVRDIVLEKFAGPYDKGEYSPSVQKTLYDIQVHSLSRVPEMEDMEISLPNIHYFNIDMSKMGLINKEEVLLPLDNPYGRITGTAKRKLASKL
notes: Active form is a homo-tetramer; octamers and larger aggregates of the same chain were also seen and separated on Source 15Q; No tag is mentioned; Unmodified (not PEGylated) protein in the SE-HPLC analysis; also called rCU; wDU
stoichiometry N: 4 and 8
